Measurements reported in article PMC3325190 (PLoS Pathogens, 2012).
[ ]: non-standard residue; d: D form. SeMet = C[Se]CC[C@H](N)C(=O)O

T1: AmrZ WT (Pseudomonas aeruginosa PAO1, UniProt G3XCY4 1-108)
T1 sequence: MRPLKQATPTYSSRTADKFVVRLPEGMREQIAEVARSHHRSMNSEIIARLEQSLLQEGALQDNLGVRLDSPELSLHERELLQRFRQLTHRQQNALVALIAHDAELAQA

T2: AmrZ delta42 (Pseudomonas aeruginosa PAO1, UniProt G3XCY4 1-66)
T2 sequence: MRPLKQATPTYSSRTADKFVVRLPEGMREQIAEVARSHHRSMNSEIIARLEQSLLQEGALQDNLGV

B1: m17 algD (dsDNA)
DNA 1: CATTGGCCATTACCAGACTCCC
DNA 2: GGGAGTCTGGTAATGGCCAATG
B2: m14 algD (dsDNA)
DNA 1: CATTGGCCATTACAAGCCTCCC
DNA 2: GGGAGGCTTGTAATGGCCAATG
B3: m6 algD (dsDNA)
DNA 1: CATTGTCCATTACCAGCCTCCC
DNA 2: GGGAGGCTGGTAATGGACAATG
B4: m5 algD (dsDNA)
DNA 1: CATTTGCCATTACCAGCCTCCC
DNA 2: GGGAGGCTGGTAATGGCAAATG
B5: WT algD (dsDNA)
DNA 1: CATTGGCCATTACCAGCCTCCC
DNA 2: GGGAGGCTGGTAATGGCCAATG
B6: GTC amrZ1 (dsDNA)
DNA 1: GTACTGTCAAAACGACGGCACG
DNA 2: CGTGCCGTCGTTTTGACAGTAC
B7: Δ42 AmrZ (C-terminal truncation mutant of AmrZ, residues 1–66) (domain or fragment)
chain: [SeMet]RPLKQATPTYSSRTADKFVVRLPEG[SeMet]REQIAEVARSHHRS[SeMet]NSEIIARLEQSLLQEGALQDNLGV
notes: not shown: poly-Histidine, N-terminal, cleaved
B8: m7 algD (dsDNA)
DNA 1: CATTGGACATTACCAGCCTCCC
DNA 2: GGGAGGCTGGTAATGTCCAATG
B9: amrZ1 18 bp crystal oligo (dsDNA)
DNA 1: ACTGGCAAAACGCCGGCA
DNA 2: TGCCGGCGTTTTGCCAGT
B10: ATAT amrZ1 (dsDNA)
DNA 1: GTACTGGCATATCGCCGGCACG
DNA 2: CGTGCCGGCGATATGCCAGTAC
B11: WT amrZ1 (dsDNA)
DNA 1: GTACTGGCAAAACGCCGGCACG
DNA 2: CGTGCCGGCGTTTTGCCAGTAC
B12: TTC/GC amrZ1 (dsDNA)
DNA 1: GTACTTTCCGCGCGAAGGCACG
DNA 2: CGTGCCTTCGCGCGGAAAGTAC
B13: TTC amrZ1 (dsDNA)
DNA 1: GTACTTTCAAAACGAAGGCACG
DNA 2: CGTGCCTTCGTTTTGAAAGTAC
B14: CGCG amrZ1 (dsDNA)
DNA 1: GTACTGGCCGCGCGCCGGCACG
DNA 2: CGTGCCGGCGCGCGGCCAGTAC
B15: m8 algD (dsDNA)
DNA 1: CATTGGCAATTACCAGCCTCCC
DNA 2: GGGAGGCTGGTAATTGCCAATG
B16: AATT amrZ1 (dsDNA)
DNA 1: GTACTGGCAATTCGCCGGCACG
DNA 2: CGTGCCGGCGAATTGCCAGTAC
B17: m16 algD (dsDNA)
DNA 1: CATTGGCCATTACCATCCTCCC
DNA 2: GGGAGGATGGTAATGGCCAATG
B18: TTTT amrZ1 (dsDNA)
DNA 1: GTACTGGCTTTTCGCCGGCACG
DNA 2: CGTGCCGGCGAAAAGCCAGTAC
B19: m13 algD (dsDNA)
DNA 1: CATTGGCCATTAACAGCCTCCC
DNA 2: GGGAGGCTGTTAATGGCCAATG

Columns and labels:
[1] = biological target: T1, AmrZ WT; test: fluorescence anisotropy; details: protein: recombinant; tags: N-terminal poly-His with 3C site, cleaved by PreScission; chain copies: 4; blunt
[2] = biological target: the molecule itself; test: crystal structure; Se-Met Δ42 AmrZ in complex with 18 bp amrZ1 DNA; hanging drop vapor diffusion at 25°C, 3% PEG8K, 0.1 M MES pH 6.0, 0.15 M NaCl, 2 mM TCEP, 50 mM MgSO4; 3.1 Å; dimer and dimer of dimers seen on the DNA
[3] = biological target: T2, AmrZ delta42; test: X-ray crystal structure (3.1 A); 50 mM MgSO4; SeMet protein; 100 mM Bis-Tris pH 6.5, 150 mM NaCl, 5% glycerol, 100 ug/ml BSA, 100 nM nonspecific DNA, 1 nM 6-FAM 22-mer, 25 C; details: protein: recombinant; tags: N-terminal poly-His with 3C site, cleaved by PreScission; chain copies: 4

Row | Binder | Kd [1] [nM] | also measured
1 | B1 | 212 ± 19 | –
2 | B2 | 216 ± 17 | –
3 | B3 | 723 ± 37 | –
4 | B4 | 164 ± 17 | –
5 | B5 | 198 ± 14 | –
6 | B6 | 82.7 ± 8.6 | –
7 | B7 | – | stoichiometry N [2]: 4
8 | B8 | 530 ± 52 | –
9 | B9 | – | binding result [3]: binds
10 | B10 | 39.1 ± 4.6 | –
11 | B11 | 8.41 ± 0.8 | –
12 | B12 | 2050 ± 180 | –
13 | B13 | 109 ± 13 | –
14 | B14 | 63.4 ± 7.3 | –
15 | B15 | 365 ± 30 | –
16 | B16 | 58.6 ± 7.5 | –
17 | B17 | 203 ± 17 | –
18 | B18 | 41.7 ± 5.1 | –
19 | B19 | 256 ± 20 | –
